Measurements from patent US20250295803A1, “5T4 ANTIBODY-DRUG CONJUGATES AND USES THEREOF” (EXELIXIS, INC., priority 2022, published 2025).
Numbering of substitutions follows the chain as printed. One block for each binder: values may come before it.

How the values were obtained:
[1] = biological target: T1, cynomolgus 5T4 on cells (HEK-cyno-5T4, transfected HEK293 and CHO cells) (cynomolgus monkey, UniProt Q4R8Y9 35-420); experiment: cell binding on transfected HEK293 and CHO cells
T1 construct: also called HEK-cyno-5T4 cells
T1 sequence: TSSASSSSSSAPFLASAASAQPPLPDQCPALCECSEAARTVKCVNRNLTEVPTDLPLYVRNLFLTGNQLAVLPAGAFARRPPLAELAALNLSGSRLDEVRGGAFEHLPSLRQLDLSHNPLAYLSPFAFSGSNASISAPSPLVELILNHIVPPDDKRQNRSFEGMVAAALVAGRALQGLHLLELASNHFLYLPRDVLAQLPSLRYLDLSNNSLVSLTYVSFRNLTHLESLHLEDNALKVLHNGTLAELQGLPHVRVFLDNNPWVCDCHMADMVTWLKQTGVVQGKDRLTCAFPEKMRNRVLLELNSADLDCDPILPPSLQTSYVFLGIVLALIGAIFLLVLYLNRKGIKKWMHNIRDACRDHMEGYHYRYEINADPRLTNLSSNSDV

[2] = biological target: T2, mouse 5T4 on transfected HEK293 and CHO cells (mouse, UniProt Q9Z0L0 32-426); experiment: cell binding on transfected HEK293 and CHO cells
T2 sequence: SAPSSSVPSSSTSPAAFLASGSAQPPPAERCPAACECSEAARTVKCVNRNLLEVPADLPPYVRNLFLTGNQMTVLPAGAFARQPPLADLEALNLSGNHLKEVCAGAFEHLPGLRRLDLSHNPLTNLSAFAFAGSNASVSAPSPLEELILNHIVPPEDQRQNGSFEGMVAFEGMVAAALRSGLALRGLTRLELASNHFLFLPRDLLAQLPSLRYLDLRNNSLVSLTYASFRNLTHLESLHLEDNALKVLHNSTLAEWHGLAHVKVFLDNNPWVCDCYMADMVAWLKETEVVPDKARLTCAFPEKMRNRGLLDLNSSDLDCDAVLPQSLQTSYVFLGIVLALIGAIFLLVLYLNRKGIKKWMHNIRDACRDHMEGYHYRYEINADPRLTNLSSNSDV

[3] = biological target: T3, biotinylated cynomolgus 5T4 with His-Avi tag (produced in-house) (cynomolgus monkey, UniProt Q4R8Y9 35-355, biotin on the Avi tag); experiment: summary of Examples 2-5; form of the antigen not given
T3 construct: also called cyno 5T4; Cyno 5T4 Octet (bivalent); not shown: C-terminal 6-His-Avi tag
T3 sequence: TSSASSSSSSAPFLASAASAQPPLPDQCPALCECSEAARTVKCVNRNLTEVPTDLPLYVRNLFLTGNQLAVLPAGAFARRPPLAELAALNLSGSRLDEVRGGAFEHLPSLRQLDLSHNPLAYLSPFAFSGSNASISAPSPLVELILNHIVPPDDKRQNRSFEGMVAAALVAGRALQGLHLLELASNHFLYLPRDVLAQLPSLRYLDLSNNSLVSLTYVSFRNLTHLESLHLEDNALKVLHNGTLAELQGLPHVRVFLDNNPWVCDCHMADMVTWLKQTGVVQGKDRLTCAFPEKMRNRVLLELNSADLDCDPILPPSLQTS

binding result [1]: binds
B1: mAbA17 (antibody, V domains shown)
VH: EVQLVESGGGLVQPGGSLRLSCAASGFTFSRYWIHWVRQAPGKGLEWVAAIFPYSGSTLYADSVKGRFTISADTSKNTAYLQMNSLRAEDTAVYYCARSPSRSILPSGLDYWGQGTLVTVSS
VL: DIQMTQSPSSLSASVGDRVTITCRASQSVSSAVAWYQQKPGKAPKLLIYSASSLYSGVPSRFSGSRSGTDFTLTISSLQPEDFATYYCQQGDGSPYTFGQGTKVEIKR
notes: also called Antibody mAbA17

binding result [2]: no binding
binding result [3]: binds
B2: mAbA4 (antibody, V domains shown)
VH: EVQLVESGGGLVQPGGSLRLSCAASGFTFSRYYIHWVRQAPGKGLEWVAFISPGGSYTYYADSVKGRFTISADTSKNTAYLQMNSLRAEDTAVYYCAREYYSMGVLDYWGQGTLVTVSS
VL: B1 VL with G91A, D92Y, G93E
notes: also called Antibody mAbA4
